Paper PMC2853120

Tests used:
[1] = molecular target: T1, tyrosyl-DNA phosphodiesterase 1 (Tdp1) (Homo sapiens, UniProt Q9NUW8 1-608); assay: SPR
[2] = molecular target: T1, tyrosyl-DNA phosphodiesterase 1 (Tdp1); assay: fluorescence anisotropy
[3] = molecular target: T1, tyrosyl-DNA phosphodiesterase 1 (Tdp1); assay: fluorescence anisotropy; remark: listed apart in the source
[4] = molecular target: T1, tyrosyl-DNA phosphodiesterase 1 (Tdp1); assay: SPR; remark: listed apart in the source
[5] = molecular target: T1, tyrosyl-DNA phosphodiesterase 1 (Tdp1); assay: competition

T1 sequence (Q9NUW8 whole entry): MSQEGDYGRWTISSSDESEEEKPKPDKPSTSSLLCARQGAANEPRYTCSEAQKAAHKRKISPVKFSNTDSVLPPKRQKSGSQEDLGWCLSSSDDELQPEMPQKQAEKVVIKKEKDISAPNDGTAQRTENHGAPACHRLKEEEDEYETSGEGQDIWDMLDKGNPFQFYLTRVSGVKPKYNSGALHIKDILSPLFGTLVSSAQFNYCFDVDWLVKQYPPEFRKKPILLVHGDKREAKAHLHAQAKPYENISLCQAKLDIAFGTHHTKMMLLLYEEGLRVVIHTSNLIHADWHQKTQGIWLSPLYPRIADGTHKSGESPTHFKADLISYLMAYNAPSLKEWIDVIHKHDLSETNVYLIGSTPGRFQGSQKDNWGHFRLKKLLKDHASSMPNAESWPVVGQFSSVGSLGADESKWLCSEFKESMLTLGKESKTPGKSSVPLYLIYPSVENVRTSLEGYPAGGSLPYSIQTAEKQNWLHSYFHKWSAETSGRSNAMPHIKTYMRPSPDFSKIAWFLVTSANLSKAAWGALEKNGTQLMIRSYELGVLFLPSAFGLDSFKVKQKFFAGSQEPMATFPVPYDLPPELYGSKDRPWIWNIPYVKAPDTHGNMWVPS

Row | Binder | Kd [3] [nM] | also measured
1 | GATCTAAAAGACTT (ssDNA, 5'-phosphate; 3'-biotin) [p14B] | – | binding result [1]: no binding
2 | GATCTAAAAGACTT (ssDNA, 5'-6-FAM via phosphodiester; 3'-OH) [F14] | – | Kd [2]: 76.9 nM
3 | GATCTAAAAGACTTG (ssDNA, 5'-6-FAM via phosphodiester; 3'-OH) [F15] | 39.2 | –
4 | GATCTAAAAGACTT (ssDNA, 5'-6-FAM via phosphodiester; 3'-phosphate) [F14p] | 34.1 | –
5 | GATCTAAAAGACTTG (ssDNA, 5'-6-FAM via phosphorothioate; 3'-OH) [F(pS)15] | 26.3 | –
6 | GATCTAAAAGACTT (ssDNA, 5'-biotin; 3'-phosphate) [B14p] | – | Kd [4]: 57 nM
7 | GATCTAAAAGACTTG (ssDNA, 3'-6-FAM via phosphorothioate (non-hydrolyzable)) [15(pS)F] | 2.4 | –
8 | AAGATCTAAAAGACTTAAGGATCTAAAAGACTTGAAGATCTAAAAGACTT (ssDNA, 3'-phosphate) [50p] | – | binding signal [5]: ~10 fold higher affinity than 14p
